Here are results for two substances from paper PMC12462484.

In assay [1] the target is wild-type KSHV ORF74 expressed in HEK293T cells (Kaposi's Sarcoma-associated Herpesvirus (HHV-8)) (UniProt Q98146).
The target in assay [2] is KSHV ORF74 with L169W, L258V and two C-terminal threonines deleted (apo construct) (Kaposi's Sarcoma-associated Herpesvirus (HHV-8)) (UniProt Q98146). Description: cryo-EM structure.

Turning to “Gαq subunit (Rluc8-fused, TRUPATH) (from UniProt P50148 1-359) (natural protein)”, in assay [1], the BRET2 (TRUPATH) G protein activation in HEK293T cells, Rluc8-Gαq / Gβ / GFP2-Gγ sensor, dose response to recombinant CXCL1: potency of CXCL1 was determined as 6.7 pEC50. In assay [2], “KSHV ORF74 with L169W, L258V and two C-terminal threonines deleted (apo construct) (from UniProt Q98146 1-340) (receptor)” returned a stoichiometry N of 2.
